In patent US20250312467A1 one finds IC50, in vitro cytotoxicity on BT474 cells and IC50, in vitro cytotoxicity on NCI-N87 cells data, which are given here for one substance.

The experiment concerns the target Her2 (UniProt P04626). As to the kind of experiment: cell-based or functional assay.

In turn, “antibody-payload conjugate (ADC, trastuzumab-DM1 conjugate)” gave an IC50, in vitro cytotoxicity on BT474 cells of 0.0296 µg/mL and an IC50, in vitro cytotoxicity on NCI-N87 cells of 0.0821 µg/mL.
